The results in this text go back to US20240132621A1.

In the test the target is chitinase-3-like protein-1 (YKL-40) on human ovarian cancer cell CA5171 (human) (UniProt P36222). In words: flow cytometry on human ovarian cancer cell CA5171.
UniProt P36222, sequence (P36222 22-383): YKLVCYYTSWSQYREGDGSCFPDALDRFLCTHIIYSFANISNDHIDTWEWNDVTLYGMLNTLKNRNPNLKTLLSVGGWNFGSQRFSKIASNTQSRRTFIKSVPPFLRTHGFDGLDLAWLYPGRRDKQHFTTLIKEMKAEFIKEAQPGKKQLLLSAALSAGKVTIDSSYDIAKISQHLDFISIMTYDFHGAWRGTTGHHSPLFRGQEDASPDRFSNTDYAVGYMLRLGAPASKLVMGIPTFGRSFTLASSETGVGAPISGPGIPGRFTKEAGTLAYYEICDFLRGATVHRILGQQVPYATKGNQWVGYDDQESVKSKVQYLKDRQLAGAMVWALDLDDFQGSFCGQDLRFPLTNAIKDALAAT

control group antibody (IgG) yielded a binding ability (percent, flow cytometry) of 28.7%.
